Laboratory results from the Immune Epitope Database (IEDB).
pKd: −log10 of the molar value.

What was measured:
HLA-A*02:01 = assay: IEDB peptide-MHC binding, purified MHC/competitive/fluorescence; filed as Kd, often an IC50 or EC50 that approximates it; ≥ and ≤ were set here for values at or beyond the usual limits of such assays
HLA-A*01:01 [1] = assay: IEDB peptide-MHC binding, purified MHC/direct/fluorescence; filed as Kd, often an IC50 or EC50 that approximates it; ≥ and ≤ were set here for values at or beyond the usual limits of such assays; details: source organism: Camelpox virus M-96
HLA-B*15:17 [2] = assay: as above; details: source organism: Camelpox virus M-96
HLA-B*27:05 [3] = assay: as above; details: source organism: Camelpox virus M-96
HLA-B*08:01 = assay: as above; details: source organism: Variola virus
HLA-B*44:02 = assay: as above; details: source organism: Camelpox virus M-96
HLA-A*69:01 [4] = assay: as above
HLA-B*18:01 [5] = assay: as above; details: source organism: Camelpox virus M-96
HLA-A*31:01 [6] = assay: as above; details: source organism: Camelpox virus M-96
HLA-B*40:01 = assay: as above; details: source organism: Camelpox virus M-96
HLA-A*11:01 = assay: as above
HLA-B*57:01 [7] = assay: as above; details: source organism: Camelpox virus M-96
HLA-A*26:01 [8] = assay: as above; details: source organism: Variola virus
HLA-B*08:02 = assay: as above; details: source organism: Variola virus
HLA-B*48:01 = assay: as above; details: source organism: Camelpox virus M-96
HLA-A*68:02 [9] = assay: as above; details: source organism: Camelpox virus M-96
HLA-B*07:02 = assay: as above; details: source organism: Camelpox virus M-96
HLA-B*39:01 [10] = assay: as above; details: source organism: Variola virus
HLA-B*58:01 = assay: as above; details: source organism: Camelpox virus M-96
HLA-B*15:09 = assay: as above; details: source organism: Variola virus
HLA-A*02:11 = assay: IEDB peptide-MHC binding, purified MHC/competitive/fluorescence; filed as Kd, often an IC50 or EC50 that approximates it; ≥ and ≤ were set here for values at or beyond the usual limits of such assays; details: source organism: Vibrio cholerae 2740-80
HLA-B*15:17 [11] = assay: as above; details: source organism: Vibrio cholerae 2740-80
HLA-B*27:03 = assay: as above; details: source organism: Vibrio cholerae 2740-80
HLA-A*69:01 [12] = assay: as above; details: source organism: Vibrio cholerae 2740-80
HLA-B*18:01 [13] = assay: as above; details: source organism: Vibrio cholerae 2740-80
HLA-B*51:01 = assay: as above; details: source organism: Vibrio cholerae 2740-80
HLA-A*02:12 = assay: as above; details: source organism: Vibrio cholerae 2740-80
HLA-B*57:01 [14] = assay: as above; details: source organism: Vibrio cholerae 2740-80
HLA-A*26:01 [15] = assay: as above
HLA-A*68:02 [16] = assay: as above; details: source organism: Vibrio cholerae 2740-80
HLA-B*39:01 [17] = assay: as above
HLA-A*24:03 = assay: as above; details: source organism: Vibrio cholerae 2740-80
HLA-B*46:01 = assay: as above; details: source organism: Vibrio cholerae 2740-80
HLA-A*29:02 = assay: as above; details: source organism: Vibrio cholerae 2740-80
HLA-A*03:01 [18] = assay: as above
HLA-B*15:01 = assay: as above
HLA-C*03:03 = assay: IEDB peptide-MHC binding, purified MHC/direct/fluorescence; filed as Kd, often an IC50 or EC50 that approximates it; ≥ and ≤ were set here for values at or beyond the usual limits of such assays
HLA-C*05:01 = assay: as above
HLA-B*27:05 [19] = assay: IEDB peptide-MHC binding, purified MHC/competitive/fluorescence; filed as Kd, often an IC50 or EC50 that approximates it; ≥ and ≤ were set here for values at or beyond the usual limits of such assays
HLA-A*31:01 [20] = assay: as above
HLA-A*03:01 [21] = assay: IEDB peptide-MHC binding, purified MHC/direct/fluorescence; filed as Kd, often an IC50 or EC50 that approximates it; ≥ and ≤ were set here for values at or beyond the usual limits of such assays; details: source organism: Escherichia coli O157:H7
HLA-A*01:01 [22] = assay: IEDB peptide-MHC binding, purified MHC/competitive/fluorescence; filed as Kd, often an IC50 or EC50 that approximates it; ≥ and ≤ were set here for values at or beyond the usual limits of such assays
HLA-B*35:01 = assay: as above
[23] = source organism: Camelpox virus M-96
[24] = source organism: Vibrio cholerae 2740-80
[25] = source organism: Bacillus thuringiensis str. Al Hakam
[26] = source organism: Campylobacter jejuni subsp. jejuni NCTC 11168 = ATCC 700819
[27] = source organism: Salmonella enterica subsp. enterica serovar Typhi
[28] = source organism: Powassan virus
[29] = source organism: Yersinia pestis Nepal516

Sequence KELENEYYF has a pKd (HLA-A*02:01; source organism: Vaccinia virus WR) of no more than 4.70, a pKd (HLA-A*01:01 [1]) of no more than 4.70 and a pKd (HLA-B*15:17 [2]) of no more than 4.70. For the same sequence, the pKd (HLA-B*27:05 [3]) was no more than 4.70, the pKd (HLA-B*08:01) was no more than 4.70 and the pKd (HLA-B*44:02) was no more than 4.70. It also gave a pKd (HLA-A*69:01 [4]; [23]) of no more than 4.70, a pKd (HLA-B*18:01 [5]) of 7.70 and a pKd (HLA-A*31:01 [6]) of no more than 4.70. For the same sequence, the pKd (HLA-B*40:01) was 7.74, the pKd (HLA-A*11:01; [23]) was no more than 4.70 and the pKd (HLA-B*57:01 [7]) was no more than 4.70. It also gave a pKd (HLA-A*26:01 [8]) of no more than 4.70, a pKd (HLA-B*08:02) of no more than 4.70 and a pKd (HLA-B*48:01) of no more than 4.70. For the same sequence, the pKd (HLA-A*68:02 [9]) was no more than 4.70, the pKd (HLA-B*07:02) was no more than 4.70 and the pKd (HLA-B*39:01 [10]) was no more than 4.70. The pKd (HLA-B*58:01) was no more than 4.70 and the pKd (HLA-B*15:09) was no more than 4.70.

Work on VQPWLMVDV yielded a pKd (HLA-A*02:11) of 6.93, a pKd (HLA-B*15:17 [11]) of no more than 4.70 and a pKd (HLA-B*27:03) of no more than 4.70. For the same sequence, the pKd (HLA-A*69:01 [12]) was no more than 4.70, the pKd (HLA-B*18:01 [13]) was no more than 4.70 and the pKd (HLA-B*51:01) was no more than 4.70. It also gave a pKd (HLA-A*02:12) of 5.93, a pKd (HLA-B*57:01 [14]) of no more than 4.70 and a pKd (HLA-A*26:01 [15]; [24]) of no more than 4.70. The pKd (HLA-A*68:02 [16]) was no more than 4.70, the pKd (HLA-B*39:01 [17]; [24]) was no more than 4.70 and the pKd (HLA-A*24:03) was no more than 4.70. It also gave a pKd (HLA-B*46:01) of no more than 4.70, a pKd (HLA-A*29:02) of no more than 4.70 and a pKd (HLA-A*03:01 [18]; [24]) of no more than 4.70. The pKd (HLA-A*02:01; [24]) was no more than 4.70 and the pKd (HLA-B*15:01; [24]) was no more than 4.70.

YLVDCGAEL showed a pKd (HLA-C*03:03; source organism: Mycobacterium tuberculosis str. Haarlem) of no less than 9.00.

YSAWGGYNL showed a pKd (HLA-B*39:01 [17]; [25]) of 6.39 and a pKd (HLA-C*05:01; [25]) of 5.38.

KRIGASLAH showed a pKd (HLA-B*27:05 [19]; source organism: Mycobacterium tuberculosis H37Rv) of 6.77.

FRAQTKGKV gave a pKd (HLA-B*27:05 [19]; source organism: Escherichia coli 536) of 7.06.

With MIYMGLWLK the pKd (HLA-A*31:01 [20]; source organism: Escherichia coli O157:H7 str. Sakai) was 6.86, the pKd (HLA-A*11:01; source organism: Escherichia coli O157:H7) was 8.33 and the pKd (HLA-A*03:01 [21]) was 6.93.

For GKLKYRASY, the pKd (HLA-B*27:05 [19]; [26]) was 5.36.

For ISANANFSY, the pKd (HLA-A*01:01 [22]; [27]) was 7.54, the pKd (HLA-B*35:01; [27]) was 7.61 and the pKd (HLA-A*03:01 [18]; [27]) was no more than 4.70. It also gave a pKd (HLA-B*15:01; [27]) of 6.68.

With KLKLKGTTY the pKd (HLA-A*31:01 [20]; [28]) was 5.67, the pKd (HLA-A*03:01 [18]; [28]) was 7.16 and the pKd (HLA-A*11:01; [28]) was no more than 4.70.

FVMSCKLLY gave a pKd (HLA-A*01:01 [22]; [29]) of 6.16, a pKd (HLA-A*26:01 [15]; [29]) of 6.48 and a pKd (HLA-B*35:01; [29]) of 8.46. The pKd (HLA-A*03:01 [18]; [29]) was 5.73.

In the case of TRALVRTGM, the pKd (HLA-B*27:05 [19]; source organism: Influenza A virus (A/swine/Italy/1509-6/97(H1N1))) was 8.08.

Work on VMYNLWKMK yielded a pKd (HLA-A*31:01 [20]; source organism: Yellow fever virus) of 8.25 and a pKd (HLA-A*11:01; source organism: Yellow fever virus 17D) of 8.20.

ILDTGTIQL showed a pKd (HLA-C*05:01; source organism: Homo sapiens) of 7.72 and a pKd (HLA-C*03:03; source organism: Homo sapiens) of 5.90.

For LLDEPTNHL, the pKd (HLA-A*69:01 [4]; source organism: Bacillus anthracis) was 6.98, the pKd (HLA-C*05:01; [26]) was 8.10 and the pKd (HLA-C*03:03; [26]) was 5.54.
